Measured values from patent publication US20160115235A1 (ARES TRADING S A, published 2016).
Residue numbers refer to the chain shown, from its start. Each block holds one binder with its values, some of them ahead of it.

Columns and labels:
[1] = target: T1, human CXCR5 (human, UniProt P32302 1-372); assay: cell-based or functional assay
T1 sequence: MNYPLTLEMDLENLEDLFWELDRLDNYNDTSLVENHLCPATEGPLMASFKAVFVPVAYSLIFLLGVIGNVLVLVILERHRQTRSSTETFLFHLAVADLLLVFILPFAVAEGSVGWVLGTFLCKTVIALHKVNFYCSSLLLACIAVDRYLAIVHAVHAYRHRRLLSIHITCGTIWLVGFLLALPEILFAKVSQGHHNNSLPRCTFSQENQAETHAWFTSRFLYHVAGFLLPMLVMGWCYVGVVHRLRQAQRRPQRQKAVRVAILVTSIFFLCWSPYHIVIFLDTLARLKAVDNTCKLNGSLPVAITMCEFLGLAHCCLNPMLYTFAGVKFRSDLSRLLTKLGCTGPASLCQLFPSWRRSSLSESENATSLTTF

[2] = target: T1, human CXCR5; assay: cell-based or functional assay; remark: listed apart in the source
[3] = target: T2, cynomolgus monkey (Macaca fascicularis) CXCR5 (cynomolgus monkey (Macaca fascicularis), UniProt P32302 1-372 (human entry)); assay: cell-based or functional assay
T2 chain: T1 sequence with W19L, L21F, R23K, L24F, L180F, G193A, H195P, A285V, K295E, R357K

[4] = target: T2, cynomolgus monkey (Macaca fascicularis) …; assay: cell-based or functional assay
[5] = target: T1, human CXCR5; assay: cell-based or functional assay; remark: listed apart in the source
[6] = target: T1, human CXCR5; assay: cell-based or functional assay; remark: listed apart in the source
[7] = target: T2, cynomolgus monkey (Macaca fascicularis) …; assay: FACS on CXCR5 expressing cells
Method: (§1) Binding of anti-CXCR5 antibodies to cell lines and primary cells expressing human CXCR5 or species orthologues was assessed by FACS. Briefly, approximately 1×10⁵ CXCR5 expressing cells were suspended in FACS buffer (PBS containing 1% FBS and 0.02% sodium azide) containing increasing concentrations of anti-CXCR5 antibodies ranging from 0-100 μg/ml, and incubated for 20 min at 4° C. Cells were washed and then resuspended in FACS buffer containing PE-labelled goat anti-human IgG (Jackson labs) for 20 min at 4° C. Cells were then washed 3 times and resuspended in 100 μl FACS buffer and analysed on a FACScalibur instrument (BD Sciences). MFI was plotted against antibody concentration and Graph pad prism software was used to calculate EC₅₀ values.

[8] = target: T3, rat CXCR5 (rat, UniProt P34997 1-374); assay: FACS on cells expressing species orthologues
T3 construct: whole, on cells
T3 sequence (looked up): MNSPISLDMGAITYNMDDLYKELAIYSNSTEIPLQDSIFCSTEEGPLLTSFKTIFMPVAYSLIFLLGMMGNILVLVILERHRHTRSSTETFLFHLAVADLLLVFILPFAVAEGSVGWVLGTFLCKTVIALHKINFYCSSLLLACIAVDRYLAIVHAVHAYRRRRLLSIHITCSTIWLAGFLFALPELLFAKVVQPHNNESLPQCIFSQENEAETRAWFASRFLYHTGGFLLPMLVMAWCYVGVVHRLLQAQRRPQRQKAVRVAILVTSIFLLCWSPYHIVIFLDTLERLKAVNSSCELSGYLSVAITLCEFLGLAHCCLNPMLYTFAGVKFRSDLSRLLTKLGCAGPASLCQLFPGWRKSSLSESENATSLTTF
Method: as §1

[9] = target: T4, mouse CXCR5 (mouse, UniProt Q04683 1-374); assay: FACS on cells expressing species orthologues
T4 construct: whole, on cells
T4 sequence (looked up): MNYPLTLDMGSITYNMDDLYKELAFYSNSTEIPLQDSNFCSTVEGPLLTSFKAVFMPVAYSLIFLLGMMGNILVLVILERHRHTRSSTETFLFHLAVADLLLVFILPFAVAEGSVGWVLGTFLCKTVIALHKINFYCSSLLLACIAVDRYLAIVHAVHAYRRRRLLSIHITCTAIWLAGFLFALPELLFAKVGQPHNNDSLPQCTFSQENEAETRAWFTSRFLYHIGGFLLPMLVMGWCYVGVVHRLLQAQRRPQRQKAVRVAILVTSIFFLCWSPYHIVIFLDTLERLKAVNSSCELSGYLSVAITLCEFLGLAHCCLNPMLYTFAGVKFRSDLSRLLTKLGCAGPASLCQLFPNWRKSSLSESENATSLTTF
Method: as §1

B1: anti-CXCR5 40C01-VH1-Vk3 as IgG4 (antibody)
heavy: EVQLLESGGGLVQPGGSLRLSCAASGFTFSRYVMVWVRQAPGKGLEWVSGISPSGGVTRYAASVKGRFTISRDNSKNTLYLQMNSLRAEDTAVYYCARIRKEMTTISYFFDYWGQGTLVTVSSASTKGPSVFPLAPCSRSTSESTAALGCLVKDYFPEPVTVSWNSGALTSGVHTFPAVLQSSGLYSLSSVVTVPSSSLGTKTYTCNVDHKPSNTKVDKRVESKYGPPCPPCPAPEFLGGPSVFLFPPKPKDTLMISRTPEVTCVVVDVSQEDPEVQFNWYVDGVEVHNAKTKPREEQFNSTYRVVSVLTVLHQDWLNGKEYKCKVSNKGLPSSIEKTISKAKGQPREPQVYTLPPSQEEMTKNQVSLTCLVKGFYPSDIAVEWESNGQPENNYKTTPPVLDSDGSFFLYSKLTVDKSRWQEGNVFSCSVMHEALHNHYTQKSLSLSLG
light: DIQMTQSPSSLSASVGDRVTITCRASQGVDAYVAWYQQKPGKVPKLLIYSTSTLASGVPSRFSGSGSGTDFTLTISSLQPEDVATYYCQSHNAAVVTFGQGTRLEIKRTVAAPSVFIFPPSDEQLKSGTASVVCLLNNFYPREAKVQWKVDNALQSGNSQESVTEQDSKDSTYSLSSTLTLSKADYEKHKVYACEVTHQGLSSPVTKSFNRGEC
efficacy of inhibition of CXCL13-stimulated L1.2-CXCR5 chemotaxis [1]: 100% | IC50, inhibition of CXCL13-induced L1.2-CXCR5 chemotaxis [2]: 2.1 nM

B2: anti-CXCR5 40C01-VH2-Vk3 as IgG4 (antibody)
heavy: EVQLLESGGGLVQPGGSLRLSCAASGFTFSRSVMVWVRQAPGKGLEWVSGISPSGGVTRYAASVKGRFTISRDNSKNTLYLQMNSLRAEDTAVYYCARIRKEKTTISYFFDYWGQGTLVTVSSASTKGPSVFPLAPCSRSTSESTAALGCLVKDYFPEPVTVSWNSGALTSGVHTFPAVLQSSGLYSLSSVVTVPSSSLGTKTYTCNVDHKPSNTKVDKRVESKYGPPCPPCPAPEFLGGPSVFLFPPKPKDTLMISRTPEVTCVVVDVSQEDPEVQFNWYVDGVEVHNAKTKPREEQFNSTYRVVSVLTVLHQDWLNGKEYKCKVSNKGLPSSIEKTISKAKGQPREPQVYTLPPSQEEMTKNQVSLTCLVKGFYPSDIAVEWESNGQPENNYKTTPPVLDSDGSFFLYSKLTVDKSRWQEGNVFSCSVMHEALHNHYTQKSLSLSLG
light: B1 light
efficacy of inhibition of CXCL13-stimulated L1.2-CXCR5 chemotaxis [1]: 100% | IC50, inhibition of CXCL13-induced L1.2-CXCR5 chemotaxis [2]: 0.103 nM

B3: anti-CXCR5 40C01-VH1-Vk3-IgG1 (antibody)
heavy: not shown
light: B1 light
IC50, inhibition of human CXCR5-L1.2 cell chemotaxis [1]: 0.38 nM | efficacy of inhibition of CXCL13-stimulated L1.2-CXCR5 chemotaxis [1]: 100% | mean IC50, inhibition of CXCL13-stimulated chemotaxis of primary human B cells in human serum [1]: 1.89 nM | efficacy of inhibition of CXCL13-stimulated L1.2-CXCR5 chemotaxis [3]: 100% | IC50, inhibition of CXCL13-induced L1.2-CXCR5 chemotaxis [2]: 1.81 nM | IC50, inhibition of CXCL13-induced L1.2-CXCR5 chemotaxis [4]: 0.19 nM | IC50, inhibition of ERK phosphorylation in whole blood (B cells, CXCL13-stimulated) [5]: 0.17 nM

B6: mAb 42F03 (antibody, human IgG1, V domains shown)
VH: EVQLLESGGGLVQPGGSLRLSCAASGFTFSWYPMTWVRQAPGKGLEWVSYIRSSGGFTKYADSVKGRFTISRDNSKNTLYLQMNSLRAEDTAVYYCARGLYRWGQGTLVTVSS
VL: IQMTQSPGTLSLSPGERATLSCRASQSVSNNYLAWYQQKPGQAPRLLISGASRRATDIADRFSGSGSGTDFTLTISRLEPEDFAVYYCQQYDSFPLTFGGGTKVEIK
Mean IC50 (nM) on L1.2/human CXCR5 cells (chemotaxis) [6]: 1.86 nM | binding result [8]: no binding | binding result [9]: no binding

B7: mAb 12A01 (antibody, V domains shown)
VH: EVQLLESGGGLVQPGGSLRLSCAASGFTFSRYVMVWVRQAPGKGLDWVSGISPSGGVTRYADSVKGRFTISRDNSKNTLYLQMNSLRAEDTAMYYCARIRKEMTTISYFFDYWGQGTLVTVSS
VL: DIQMTQSPDSLSASVGDRVTITCRASQGVDIYVAWYQQKPGKVPKLLMHSASTLASGVPSRFSGRGSGTDFTLTINSLQAEDVATYYCQSHNSAVVTFGQGTRLEIK
Mean IC50 (nM) on L1.2/human CXCR5 cells (chemotaxis) [6]: 2200 nM | binding result [7]: binds | binding result [8]: no binding | binding result [9]: no binding

B8: anti-CXCR5 40C01-VH2-Vk3 as IgG1 (antibody)
VH: B7 VH with Y32S, D46E, D62A, M93V, M103K
light: B1 light
IC50, inhibition of human CXCR5-L1.2 cell chemotaxis [1]: 0.05 nM | efficacy of inhibition of CXCL13-stimulated L1.2-CXCR5 chemotaxis [1]: 100% | mean IC50, inhibition of CXCL13-stimulated chemotaxis of primary human B cells in human serum [1]: 0.34 nM | efficacy of inhibition of CXCL13-stimulated L1.2-CXCR5 chemotaxis [3]: 100% | IC50, inhibition of CXCL13-induced L1.2-CXCR5 chemotaxis [2]: 0.098 nM | IC50, inhibition of CXCL13-induced L1.2-CXCR5 chemotaxis [4]: 0.17 nM | IC50, inhibition of ERK phosphorylation in whole blood (B cells, CXCL13-stimulated) [5]: 0.45 nM

B9: mAb 40C01 (antibody, V domains shown)
VH: B7 VH
VL: B7 VL with Q6R, S7A, V43A
notes: also called 40C01 VH-VL; 40C01 parental molecule
Mean IC50 (nM) on L1.2/human CXCR5 cells (chemotaxis) [6]: 5.6 nM | binding result [7]: binds | binding result [8]: no binding | binding result [9]: no binding

B13: mAb 80A10 (antibody, V domains shown)
VH: EVQLLESGGGLVQPGGSLRLSCAASGFTFSMYVMKWVRQAPGKGLEWVSGIRSSGGDTSYADSVKGRFTISRDNSKNTLYLQMNSLRAEDTAVYYCARQSRYCNGGSCYSRAFDIWGQGTMVTVSS
VL: QPPSASGTPGQRVTISCFGSNSNIGSTYAYWYQQVPGTAPKLLIYRNNQRPSGVPDRFSGSKSGTSASLAISGLRSEDEADYYCAAWDVNLSGHWVFGGGTKLTVLG
Mean IC50 (nM) on L1.2/human CXCR5 cells (chemotaxis) [6]: 4.7 nM | binding result [8]: no binding | binding result [9]: no binding

More lines, now with the values ahead:

Mean IC50 (nM) on L1.2/human CXCR5 cells (chemotaxis) [6]: 37 nM | binding result [7]: binds | binding result [8]: no binding | binding result [9]: no binding
B4: mAb 80D11 (antibody, V domains shown)
VH: EVQLLESGGGLVQPGGSLRLSCAASGFTFSHYWMQWVRQAPGKGLEWVSSISSSGGKTRYADSVKGRFTISRDNSKNTLYLQMNSLRAEDTAVYYCATAGYSSGWGQGTLVTVSS
VL: QSALTQPASVSGSPGQSITISCTGTSSDVGGYNYLSWYQQHPGKAPKLMIYGVSNRPSGVSTRFSGSKSGNTASLTISGLQAEDEADYYCSSYTSTGTRVFGGGTRLTVL

Mean IC50 (nM) on L1.2/human CXCR5 cells (chemotaxis) [6]: 251 nM | binding result [8]: no binding | binding result [9]: no binding
B5: mAb 80B09 (antibody, V domains shown)
VH: EVQLLESGGGLVQPGGSLRLSCAASGFTFSKYNMLWVRQAPGKGLEWVSVISPSGGRTSYADSVKGRFTISRDNSKNTLYLQMNSLRAEDTAVYYCARHTSITMFDYWGQGTLVTVSS
VL: QSALTQPASVSGSPGQSITISCTGTSSDIGSYNYVSWYQQHPGRAPKVMIYDVTYRPSGVSNRFSGSKSGNTASLTISGLQAEDEADYYCGSYRKSSLYVFGTGTKVTVL

IC50, inhibition of human CXCR5-L1.2 cell chemotaxis [1]: 288 nM
B10: recombinant Fab fragment of 40C01-VH1-Vk3 (Fab, V domains shown)
VH: B7 VH with D46E, D62A, M93V
VL: B7 VL with D9S, I31A, M48I, H49Y, A51T, R65S, N76S, A80P, S93A

IC50, inhibition of human CXCR5-L1.2 cell chemotaxis [1]: 20.9 nM
B11: recombinant Fab fragment of 40C01-VH2-Vk3 (Fab, V domains shown)
VH: B7 VH with Y32S, D46E, D62A, M93V, M103K
VL: B7 VL with D9S, I31A, M48I, H49Y, A51T, R65S, N76S, A80P, S93A

Mean IC50 (nM) on L1.2/human CXCR5 cells (chemotaxis) [6]: 1.85 nM | binding result [8]: no binding | binding result [9]: no binding
B12: mAb 80A11 (antibody, V domains shown)
VH: EVQLLESGGGLVQPGGSLRLSCAASGFTFSRYPMGWVRQAPGKGLEWVSSISPSGGMTRYADSVKGRFTISRDNSKNTLYLQMNSLRAEDTAVYYCARLKFTSGRTFDIWGQGTMVTVSS
VL: DIQMTQSPATLSLSPGERATLSCRASQSVSSYLAWYQQKPGQAPRLLIYGASSRVPGVPDRFTGSGSETDFTLTITRLEPEDFAVYYCQLSSSSPSWTFGQGTRLEIK
